Sequences and labels used below:
B1: coat protein gpE (natural protein, bacteriophage lambda, UniProt P03713 1-341, looked up)
chain: MSMYTTAQLLAANEQKFKFDPLFLRLFFRESYPFTTEKVYLSQIPGLVNMALYVSPIVSGEVIRSRGGSTSEFTPGYVKPKHEVNPQMTLRRLPDEDPQNLADPAYRRRRIIMQNMRDEELAIAQVEEMQAVSAVLKGKYTMTGEAFDPVEVDMGRSEENNITQSGGTEWSKRDKSTYDPTDDIEAYALNASGVVNIIVFDPKGWALFRSFKAVKEKLDTRRGSNSELETAVKDLGKAVSYKGMYGDVAIVVYSGQYVENGVKKNFLPDNTMVLGNTQARGLRTYGCIQDADAQREGINASARYPKNWVTTGDPAREFTMIQSAPLMLLADPDEFVSVQLA
notes: major capsid (coat) protein gpE of bacteriophage lambda, as it stands in the mature virion; The introduction gives 415 copies in the head (cited); also called major capsid protein gpE; head protein gpE; source: lambda W60 phage grown on E. coli MG1655; virions purified (PEG 8000 precipitation, CsCl gradient)
B2: cementing protein gpD (natural protein)
chain: MTSKETFTHYQPQGNSDPAHTATAPGGLSAKAPAMTPLMLDTSSRKLVAWDGTTDGAAVGILAVAADQTSTTLTFYKSGTFRYEDVLWPEAASDETKKRTAFAGTAISIV
notes: cementing (decoration) protein gpD of bacteriophage lambda, trimers on the capsid shell of the mature virion; also called head protein gpD; source: lambda W60 phage grown on E. coli MG1655; virions purified (PEG 8000 precipitation, CsCl gradient)
B3: tape measure protein gpH (natural protein, bacteriophage lambda, UniProt P03736 1-853, looked up)
chain: MAEPVGDLVVDLSLDAARFDEQMARVRRHFSGTESDAKKTAAVVEQSLSRQALAAQKAGISVGQYKAAMRMLPAQFTDVATQLAGGQSPWLILLQQGGQVKDSFGGMIPMFRGLAGAITLPMVGATSLAVATGALAYAWYQGNSTLSDFNKTLVLSGNQAGLTADRMLVLSRAGQAAGLTFNQTSESLSALVKAGVSGEAQIASISQSVARFSSASGVEVDKVAEAFGKLTTDPTSGLTAMARQFHNVSAEQIAYVAQLQRSGDEAGALQAANEAATKGFDDQTRRLKENMGTLETWADRTARAFKSMWDAVLDIGRPDTAQEMLIKAEAAYKKADDIWNLRKDDYFVNDEARARYWDDREKARLALEAARKKAEQQTQQDKNAQQQSDTEASRLKYTEEAQKAYERLQTPLEKYTARQEELNKALKDGKILQADYNTLMAAAKKDYEATLKKPKQSSVKVSAGDRQEDSAHAALLTLQAELRTLEKHAGANEKISQQRRDLWKAESQFAVLEEAAQRRQLSAQEKSLLAHKDETLEYKRQLAALGDKVTYQERLNALAQQADKFAQQQRAKRAAIDAKSRGLTDRQAEREATEQRLKEQYGDNPLALNNVMSEQKKTWAAEDQLRGNWMAGLKSGWSEWEESATDSMSQVKSAATQTFDGIAQNMAAMLTGSEQNWRSFTRSVLSMMTEILLKQAMVGIVGSIGSAIGGAVGGGASASGGTAIQAAAAKFHFATGGFTGTGGKYEPAGIVHRGEFVFTKEATSRIGVGNLYRLMRGYATGGYVGTPGSMADSRSQASGTFEQNNHVVINNDGTNGQIGPAALKAVYDMARKGARDEIQTQMRDGGLFSGGGR
notes: tape measure protein gpH of bacteriophage lambda in the virion; only a C-terminal α-helix modelled (residues 818-842 in the results, 818-849 in the methods); source: lambda W60 phage grown on E. coli MG1655; virions purified (PEG 8000 precipitation, CsCl gradient)
B4: central fiber protein gpJ (natural protein, bacteriophage lambda, UniProt P03749 1-1132, looked up)
chain: MGKGSSKGHTPREAKDNLKSTQLLSVIDAISEGPIEGPVDGLKSVLLNSTPVLDTEGNTNISGVTVVFRAGEQEQTPPEGFESSGSETVLGTEVKYDTPITRTITSANIDRLRFTFGVQALVETTSKGDRNPSEVRLLVQIQRNGGWVTEKDITIKGKTTSQYLASVVMGNLPPRPFNIRMRRMTPDSTTDQLQNKTLWSSYTEIIDVKQCYPNTALVGVQVDSEQFGSQQVSRNYHLRGRILQVPSNYNPQTRQYSGIWDGTFKPAYSNNMAWCLWDMLTHPRYGMGKRLGAADVDKWALYVIGQYCDQSVPDGFGGTEPRITCNAYLTTQRKAWDVLSDFCSAMRCMPVWNGQTLTFVQDRPSDKTWTYNRSNVVMPDDGAPFRYSFSALKDRHNAVEVNWIDPNNGWETATELVEDTQAIARYGRNVTKMDAFGCTSRGQAHRAGLWLIKTELLETQTVDFSVGAEGLRHVPGDVIEICDDDYAGISTGGRVLAVNSQTRTLTLDREITLPSSGTALISLVDGSGNPVSVEVQSVTDGVKVKVSRVPDGVAEYSVWELKLPTLRQRLFRCVSIRENDDGTYAITAVQHVPEKEAIVDNGAHFDGEQSGTVNGVTPPAVQHLTAEVTADSGEYQVLARWDTPKVVKGVSFLLRLTVTADDGSERLVSTARTTETTYRFTQLALGNYRLTVRAVNAWGQQGDPASVSFRIAAPAAPSRIELTPGYFQITATPHLAVYDPTVQFEFWFSEKQIADIRQVETSTRYLGTALYWIAASINIKPGHDYYFYIRSVNTVGKSAFVEAVGRASDDAEGYLDFFKGKITESHLGKELLEKVELTEDNASRLEEFSKEWKDASDKWNAMWAVKIEQTKDGKHYVAGIGLSMEDTEEGKLSQFLVAANRIAFIDPANGNETPMFVAQGNQIFMNDVFLKRLTAPTITSGGNPPAFSLTPDGKLTAKNADISGSVNANSGTLSNVTIAENCTINGTLRAEKIVGDIVKAASAAFPRQRESSVDWPSGTRTVTVTDDHPFDRQIVVLPLTFRGSKRTVSGRTTYSMCYLKVLMNGAVIYDGAANEAVQVFSRIVDMPAGRGNVILTFTLTSTRHSADIPPYTFASDVQVMVIKKQALGISVV
notes: central fiber protein gpJ of bacteriophage lambda in the virion; domains HDII, HDII-insertion (with FNIII-A, residues 72-215), HDIII, HDIV (with a β-sandwich, residues 483-569), linker, FNIII-1, FNIII-2, three-helix bundle; source: lambda W60 phage grown on E. coli MG1655; virions purified (PEG 8000 precipitation, CsCl gradient)
B5: insertion protein gpI (natural protein, bacteriophage lambda, UniProt P03730 1-223, looked up)
chain: MAATHTLPLASPGMARICLYGDLQRFGRRIDLRVKTGAEAIRALATQLPAFRQKLSDGWYQVRIAGRDVSTSGLTAQLHETLPDGAVIHIVPRVAGAKSGGVFQIVLGAAAIAGSFFTAGATLAAWGAAIGAGGMTGILFSLGASMVLGGVAQMLAPKARTPRIQTTDNGKQNTYFSSLDNMVAQGNVLPVLYGEMRVGSRVVSQEISTADEGDGGQVVVIGR
notes: insertion protein gpI of bacteriophage lambda in the virion; source: lambda W60 phage grown on E. coli MG1655; virions purified (PEG 8000 precipitation, CsCl gradient)
B6: tail terminal protein gpU (natural protein, bacteriophage lambda, UniProt P03732 1-131, looked up)
chain: MKHTELRAAVLDALEKHDTGATFFDGRPAVFDEADFPAVAVYLTGAEYTGEELDSDTWQAELHIEVFLPAQVPDSELDAWMESRIYPVMSDIPALSDLITSMVASGYDYRRDDDAGLWSSADLTYVITYEM
notes: tail terminal protein gpU of bacteriophage lambda; all 131 residues modelled; O-loop 25-37, E-loop 45-58; also called tail terminator; source: lambda W60 phage grown on E. coli MG1655; virions purified (PEG 8000 precipitation, CsCl gradient)
B7: portal protein gpB (natural protein, bacteriophage lambda, UniProt P03710 23-533, looked up)
chain: GYHGGGSGFGGQLRSWNPPSESVDAALLPNFTRGNARADDLVRNNGYAANAIQLHQDHIVGSFFRLSHRPSWRYLGIGEEEARAFSREVEAAWKEFAEDDCCCIDVERKRTFTMMIREGVAMHAFNGELFVQATWDTSSSRLFRTQFRMVSPKRISNPNNTGDSRNCRAGVQINDSGAALGYYVSEDGYPGWMPQKWTWIPRELPGGRASFIHVFEPVEDGQTRGANVFYSVMEQMKMLDTLQNTQLQSAIVKAMYAATIESELDTQSAMDFILGANSQEQRERLTGWIGEIAAYYAAAPVRLGGAKVPHLMPGDSLNLQTAQDTDNGYSVFEQSLLRYIAAGLGVSYEQLSRNYAQMSYSTARASANESWAYFMGRRKFVASRQASQMFLCWLEEAIVRRVVTLPSKARFSFQEARSAWGNCDWIGSGRMAIDGLKEVQEAVMLIEAGLSTYEKECAKRGDDYQEIFAQQVRETMERRAAGLKPPAWAAAAFESGLRQSTEEEKSDSRAA
notes: portal protein gpB of bacteriophage lambda in the mature virion; modelled without 23 N-terminal residues, 20 C-terminal residues and the loop 303-319; domains: wing 24-249 and 368-452, stem 250-279 and 343-367, clip 280-342, crown 453-511; source: lambda W60 phage grown on E. coli MG1655; virions purified (PEG 8000 precipitation, CsCl gradient); copies: 12
B8: tail tube protein gpV, P03733 1-246 (natural protein)
chain: MPVPNPTMPVKGAGTTLWVYKGSGDPYANPLSDVDWSRLAKVKDLTPGELTAESYDDSYLDDEDADWTATGQGQKSAGDTSFTLAWMPGEQGQQALLAWFNEGDTRAYKIRFPNGTVDVFRGWVSSIGKAVTAKEVITRTVKVTNVGRPSMAEDRSTVTAATGMTVTPASTSVVKGQSTTLTVAFQPEGVTDKSFRAVSADKTKATVSVSGMTITVNGVAAGKVNIPVVSGNGEFAAVAEITVTAS
B9: adaptor protein gpW (natural protein, bacteriophage lambda)
chain: MTRQEELAAARAALHDLMTGKRVATVQKDGRRVEFTATSVSDLKKYIAELEVQTGMTQRRRGPAGFYV
notes: adaptor protein gpW of bacteriophage lambda, 68-residue protein, residues 4-68 resolved; domains: β-hairpin 23-36, two-α-helix bundle 4-22 and 37-54, C-arm 55-68; also called neck protein gpW; source: lambda W60 phage grown on E. coli MG1655; virions purified (PEG 8000 precipitation, CsCl gradient); copies: 12
B10: stopper protein gpFII (natural protein, bacteriophage lambda)
chain: MADFDNLFDAAIARADETIRGYMGTSATITSGEQSGAVIRGVFDDPENISYAGQGVRVEGSSPSLFVRTDEVRQLRRGDTLTIGEENFWVDRVSPDDGGSCHLWLGRGVPPAVNRRR
notes: stopper protein gpFII of bacteriophage lambda, 117-residue protein, residues 4-117 resolved; domains: N-terminal α-helix 4-24, β-sandwich 25-41 and 63-107, β-hairpin 46-62, C-terminal loop 108-117; also called neck protein gpFII; source: lambda W60 phage grown on E. coli MG1655; virions purified (PEG 8000 precipitation, CsCl gradient)
B11: distal tail protein gpM (natural protein, bacteriophage lambda, UniProt P03737 1-109, looked up)
chain: MKTFRWKVKPGMDVASVPSVRKVRFGDGYSQRAPAGLNANLKTYSVTLSVPREEATVLESFLEEHGGWKSFLWTPPYEWRQIKVTCAKWSSRVSMLRVEFSAEFEQVVN
notes: distal tail protein gpM of bacteriophage lambda; all 109 residues resolved; two conformers that differ in the E-loop; source: lambda W60 phage grown on E. coli MG1655; virions purified (PEG 8000 precipitation, CsCl gradient)

Data set [1] deals with the molecule itself. The data set is described as follows: cryo-EM structure; purified lambda virions; icosahedral reconstruction of the head, 3.5 Å.
The data set “coat protein gpE” deals with B1. The description is as above. The note with it: both partners purified.
The target of data set [2] is T1, cementing protein gpD (bacteriophage lambda), P03712.
T1 chain: B2 chain
Described as above. The note with it: remark: other sources report otherwise.

Data set [3] concerns the molecule itself. The data set can be described thus: cryo-EM structure; purified lambda virions; local reconstruction of the tail tip complex with C3 symmetry (RELION), 3.44 Å.
Data set [4] concerns the molecule itself. The data set is described as follows: cryo-EM structure; purified lambda virions; local reconstruction of the neck: gpFII, gpU and 2 proximal gpV rings, 3.5 Å.
Data set [5] deals with the molecule itself. The data set can be described thus: cryo-EM structure; purified lambda virions; local reconstruction of the gpB (portal) and gpW (adaptor) rings with 12-fold symmetry, 3.2 Å.
Data set [6] deals with T2, tail tube protein gpV (bacteriophage lambda), P03733.
T2 chain: B8 chain
The data set can be described thus: cryo-EM structure; purified lambda virions; local reconstruction of the tail tube (RELION), 3.48 Å. As to conditions: remark: other sources report otherwise.

The target of data set [7] is B6. The data set is described as follows: cryo-EM structure; purified lambda virions; local reconstruction of the neck: gpFII, gpU and 2 proximal gpV rings, 3.5 Å. The note with it: both partners purified.

As for B1, the binding result in data set [1] was “binds”. B2: the binding result in the data set with coat protein gpE is on record as “binds”. Besides, the stoichiometry N in data set [2] is 3. Turning to B3, the “stoichiometry N” value in data set [3] was 3. Still for that read-out and setting: next, B4: 3. Same read-out and setting: the same measure for B5: 3.

Regarding B6, the “stoichiometry N” value in data set [4] stood at 6.

As for B7, in data set [5], the “stoichiometry N” value was determined as 12. With B8, the stoichiometry N in data set [6] is 6.

As for B9, in data set [5], the “stoichiometry N” value amounted to 12. Take B10: the binding result in data set [7] was “binds”. Moreover, the “stoichiometry N” value in data set [4] was determined as 6.

As to B11, the “stoichiometry N” value in data set [3] stood at 6.

Source of the values: PMC10721106, “Structure of the siphophage neck–Tail complex suggests that conserved tail tip proteins facilitate receptor binding and tail assembly” (PLOS Biology, 2023).
